Reference: paper PMC5095700

Tested on: N[C@@H]1[C@@H](O)[C@H](O)[C@@H](CO)O[C@H]1O
Experiment: steady-state kinetics of purified variant
Type: biochemical, Clostridium acetobutylicum
Settings: acetyl CoA

Substance	Km [mM]	kcat [s⁻¹]
Glucosamine/glucosaminide N-acetyltransferase (GlmA) (Clostridium acetobutylicum ATCC 824; Y297F)	7.1 ± 0.5	1.3 ± 0.06
Glucosamine/glucosaminide N-acetyltransferase (GlmA) (Clostridium acetobutylicum ATCC 824; D287N)	11.8 ± 0.5	1.05 ± 0.03
